Measured values taken from publication PMC6056499, “A systematic dissection of sequence elements determining β-Klotho and FGF interaction and signaling” (Scientific Reports, 2018).

Columns and labels:
[1] = biological target: human β-Klotho extracellular domain (aa1–992) fused with a 6 × His tag at the C-terminus (UniProt Q86Z14); test: AlphaScreen; settings: parent: est. 1.0, read off a plot
[2] = biological target: human β-Klotho extracellular domain (aa1–992) fused with a 6 × His tag at the C-terminus (UniProt Q86Z14); test: solid-phase binding assay; settings: parent: est. 1.0; read off a plot
[3] = competition with FGF19 for β-Klotho
[4] = competition with FGF21 for β-Klotho

human β-Klotho extracellular domain (aa1–992) fused with a 6 × His tag at the C-terminus, sequence (Q86Z14 53-992): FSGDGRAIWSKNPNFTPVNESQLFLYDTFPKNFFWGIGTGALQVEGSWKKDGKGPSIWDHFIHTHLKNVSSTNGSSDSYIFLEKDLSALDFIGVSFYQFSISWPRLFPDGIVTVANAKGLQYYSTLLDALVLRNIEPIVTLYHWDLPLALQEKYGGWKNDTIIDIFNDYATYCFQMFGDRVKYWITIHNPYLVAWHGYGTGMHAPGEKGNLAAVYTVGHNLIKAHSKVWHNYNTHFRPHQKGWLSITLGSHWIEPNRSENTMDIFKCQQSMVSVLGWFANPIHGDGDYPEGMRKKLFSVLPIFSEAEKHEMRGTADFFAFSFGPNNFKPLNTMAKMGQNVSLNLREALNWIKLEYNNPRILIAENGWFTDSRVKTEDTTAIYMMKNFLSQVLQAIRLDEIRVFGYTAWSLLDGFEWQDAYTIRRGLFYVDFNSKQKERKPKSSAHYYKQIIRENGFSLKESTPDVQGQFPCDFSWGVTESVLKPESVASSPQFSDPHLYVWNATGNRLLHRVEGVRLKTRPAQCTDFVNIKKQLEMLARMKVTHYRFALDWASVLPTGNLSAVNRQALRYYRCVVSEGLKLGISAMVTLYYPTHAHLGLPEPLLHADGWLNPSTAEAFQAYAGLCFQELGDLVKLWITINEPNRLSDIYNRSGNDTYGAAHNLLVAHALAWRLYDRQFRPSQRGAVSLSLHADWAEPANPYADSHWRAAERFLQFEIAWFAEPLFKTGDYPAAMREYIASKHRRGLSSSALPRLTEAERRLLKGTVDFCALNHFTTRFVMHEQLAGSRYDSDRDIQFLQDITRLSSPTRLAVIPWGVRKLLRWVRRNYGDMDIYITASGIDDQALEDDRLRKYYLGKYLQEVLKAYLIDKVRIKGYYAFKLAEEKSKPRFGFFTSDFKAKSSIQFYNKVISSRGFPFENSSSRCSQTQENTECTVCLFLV
FGF19 C-terminal peptide, WT FGF19^185–216 (from UniProt O95750) 189S-A, sequence (O95750 185-216, change not shown): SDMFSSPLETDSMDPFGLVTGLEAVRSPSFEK
FGF19 C-terminal peptide, WT FGF19^185–216 (from UniProt O95750) 187M-A, sequence (O95750 185-216, change not shown): as above
FGF19 C-terminal peptide, WT FGF19^185–216 (from UniProt O95750) 192L-A, sequence (O95750 185-216, change not shown): as above
FGF19 C-terminal peptide, WT FGF19^185–216 (from UniProt O95750) 191P-A, sequence (O95750 185-216, change not shown): as above
FGF19 C-terminal peptide, WT FGF19^185–216 (from UniProt O95750) 190S-A, sequence (O95750 185-216, change not shown): as above
FGF19 C-terminal peptide, WT FGF19^185–216 (from UniProt O95750) 188F-A, sequence (O95750 185-216, change not shown): as above
FGF19 C-terminal peptide, WT FGF19^185–216 (from UniProt O95750) 186D-A, sequence (O95750 185-216, change not shown): as above
FGF19 C-terminal peptide, WT FGF19^185–216 (from UniProt O95750) 193E-A, sequence (O95750 185-216, change not shown): as above
FGF19 C-terminal peptide, WT FGF19^185–216 (from UniProt O95750) 185S-A, sequence (O95750 185-216, change not shown): as above
mature human FGF21 polypeptide fused with the human Fc fragment at the N-terminus (Fc-FGF21), wild type (from UniProt Q9NSA1) 202G-R, sequence (Q9NSA1 29-209, change not shown): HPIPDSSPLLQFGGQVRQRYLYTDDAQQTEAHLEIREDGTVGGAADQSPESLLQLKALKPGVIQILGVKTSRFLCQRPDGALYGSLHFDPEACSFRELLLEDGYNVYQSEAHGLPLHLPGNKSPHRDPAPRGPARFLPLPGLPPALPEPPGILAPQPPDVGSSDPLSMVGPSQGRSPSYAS
mature human FGF21 polypeptide fused with the human Fc fragment at the N-terminus (Fc-FGF21), wild type (from UniProt Q9NSA1) 183P-A, sequence (Q9NSA1 29-209, change not shown): as above
mature human FGF21 polypeptide fused with the human Fc fragment at the N-terminus (Fc-FGF21), wild type (from UniProt Q9NSA1) 205P-R, sequence (Q9NSA1 29-209, change not shown): as above
mature human FGF21 polypeptide fused with the human Fc fragment at the N-terminus (Fc-FGF21), wild type (from UniProt Q9NSA1) 187D-R, sequence (Q9NSA1 29-209, change not shown): as above
mature human FGF21 polypeptide fused with the human Fc fragment at the N-terminus (Fc-FGF21), wild type (from UniProt Q9NSA1) 189G-A, sequence (Q9NSA1 29-209, change not shown): as above
mature human FGF21 polypeptide fused with the human Fc fragment at the N-terminus (Fc-FGF21), wild type (from UniProt Q9NSA1) 199P-A, sequence (Q9NSA1 29-209, change not shown): as above
mature human FGF21 polypeptide fused with the human Fc fragment at the N-terminus (Fc-FGF21), wild type (from UniProt Q9NSA1) 189G-R, sequence (Q9NSA1 29-209, change not shown): as above
mature human FGF21 polypeptide fused with the human Fc fragment at the N-terminus (Fc-FGF21), wild type (from UniProt Q9NSA1) 184Q-A, sequence (Q9NSA1 29-209, change not shown): as above
mature human FGF21 polypeptide fused with the human Fc fragment at the N-terminus (Fc-FGF21), wild type (from UniProt Q9NSA1) 181L-A, sequence (Q9NSA1 29-209, change not shown): as above
mature human FGF21 polypeptide fused with the human Fc fragment at the N-terminus (Fc-FGF21), wild type (from UniProt Q9NSA1) 208A-R, sequence (Q9NSA1 29-209, change not shown): as above
mature human FGF21 polypeptide fused with the human Fc fragment at the N-terminus (Fc-FGF21), wild type (from UniProt Q9NSA1) 185P-R, sequence (Q9NSA1 29-209, change not shown): as above
mature human FGF21 polypeptide fused with the human Fc fragment at the N-terminus (Fc-FGF21), wild type (from UniProt Q9NSA1) 181L-R, sequence (Q9NSA1 29-209, change not shown): as above
mature human FGF21 polypeptide fused with the human Fc fragment at the N-terminus (Fc-FGF21), wild type (from UniProt Q9NSA1) 203R-A, sequence (Q9NSA1 29-209, change not shown): as above
mature human FGF21 polypeptide fused with the human Fc fragment at the N-terminus (Fc-FGF21), wild type (from UniProt Q9NSA1) 188V-R, sequence (Q9NSA1 29-209, change not shown): as above
mature human FGF21 polypeptide fused with the human Fc fragment at the N-terminus (Fc-FGF21), wild type (from UniProt Q9NSA1) 183P-R, sequence (Q9NSA1 29-209, change not shown): as above
mature human FGF21 polypeptide fused with the human Fc fragment at the N-terminus (Fc-FGF21), wild type (from UniProt Q9NSA1) 209S-A, sequence (Q9NSA1 29-209, change not shown): as above
mature human FGF21 polypeptide fused with the human Fc fragment at the N-terminus (Fc-FGF21), wild type (from UniProt Q9NSA1) 197V-A, sequence (Q9NSA1 29-209, change not shown): as above
mature human FGF21 polypeptide fused with the human Fc fragment at the N-terminus (Fc-FGF21), wild type (from UniProt Q9NSA1) 200S-R, sequence (Q9NSA1 29-209, change not shown): as above

Substance	ratio to parent [1, 3]	ratio to parent [1, 4]	ratio to parent [2]
FGF19 C-terminal peptide, WT FGF19^185–216 (from UniProt O95750) 185S-A	1.4	0.8	
FGF19 C-terminal peptide, WT FGF19^185–216 (from UniProt O95750) 186D-A	0.8	0.7	
FGF19 C-terminal peptide, WT FGF19^185–216 (from UniProt O95750) 187M-A	1.2	0.9	
FGF19 C-terminal peptide, WT FGF19^185–216 (from UniProt O95750) 188F-A	2.7	1.4	
FGF19 C-terminal peptide, WT FGF19^185–216 (from UniProt O95750) 189S-A	1.7	1.3	
FGF19 C-terminal peptide, WT FGF19^185–216 (from UniProt O95750) 190S-A	2.9	1.4	
FGF19 C-terminal peptide, WT FGF19^185–216 (from UniProt O95750) 191P-A	0.8	0.5	
FGF19 C-terminal peptide, WT FGF19^185–216 (from UniProt O95750) 192L-A	11	7.5	
FGF19 C-terminal peptide, WT FGF19^185–216 (from UniProt O95750) 193E-A	0.3	0.3	
mature human FGF21 polypeptide fused with the human Fc fragment at the N-terminus (Fc-FGF21), wild type (from UniProt Q9NSA1) 180I-R			2.3
mature human FGF21 polypeptide fused with the human Fc fragment at the N-terminus (Fc-FGF21), wild type (from UniProt Q9NSA1) 181L-A			0.5
mature human FGF21 polypeptide fused with the human Fc fragment at the N-terminus (Fc-FGF21), wild type (from UniProt Q9NSA1) 181L-R			1.2
mature human FGF21 polypeptide fused with the human Fc fragment at the N-terminus (Fc-FGF21), wild type (from UniProt Q9NSA1) 182A-R			1.4
mature human FGF21 polypeptide fused with the human Fc fragment at the N-terminus (Fc-FGF21), wild type (from UniProt Q9NSA1) 183P-A			0.8
mature human FGF21 polypeptide fused with the human Fc fragment at the N-terminus (Fc-FGF21), wild type (from UniProt Q9NSA1) 183P-R			1
mature human FGF21 polypeptide fused with the human Fc fragment at the N-terminus (Fc-FGF21), wild type (from UniProt Q9NSA1) 184Q-A			1.2
mature human FGF21 polypeptide fused with the human Fc fragment at the N-terminus (Fc-FGF21), wild type (from UniProt Q9NSA1) 184Q-R			1.8
mature human FGF21 polypeptide fused with the human Fc fragment at the N-terminus (Fc-FGF21), wild type (from UniProt Q9NSA1) 185P-A			1.3
mature human FGF21 polypeptide fused with the human Fc fragment at the N-terminus (Fc-FGF21), wild type (from UniProt Q9NSA1) 185P-R			1.6
mature human FGF21 polypeptide fused with the human Fc fragment at the N-terminus (Fc-FGF21), wild type (from UniProt Q9NSA1) 186P-A			12
mature human FGF21 polypeptide fused with the human Fc fragment at the N-terminus (Fc-FGF21), wild type (from UniProt Q9NSA1) 187D-A			14
mature human FGF21 polypeptide fused with the human Fc fragment at the N-terminus (Fc-FGF21), wild type (from UniProt Q9NSA1) 187D-R			6
mature human FGF21 polypeptide fused with the human Fc fragment at the N-terminus (Fc-FGF21), wild type (from UniProt Q9NSA1) 188V-A			200

Substance	ratio to parent [1, 3]	ratio to parent [1, 4]	ratio to parent [2]
mature human FGF21 polypeptide fused with the human Fc fragment at the N-terminus (Fc-FGF21), wild type (from UniProt Q9NSA1) 188V-R			950
mature human FGF21 polypeptide fused with the human Fc fragment at the N-terminus (Fc-FGF21), wild type (from UniProt Q9NSA1) 189G-A			0.8
mature human FGF21 polypeptide fused with the human Fc fragment at the N-terminus (Fc-FGF21), wild type (from UniProt Q9NSA1) 189G-R			1.2
mature human FGF21 polypeptide fused with the human Fc fragment at the N-terminus (Fc-FGF21), wild type (from UniProt Q9NSA1) 190S-A			15
mature human FGF21 polypeptide fused with the human Fc fragment at the N-terminus (Fc-FGF21), wild type (from UniProt Q9NSA1) 190S-R			6.5
mature human FGF21 polypeptide fused with the human Fc fragment at the N-terminus (Fc-FGF21), wild type (from UniProt Q9NSA1) 195S-A			3
mature human FGF21 polypeptide fused with the human Fc fragment at the N-terminus (Fc-FGF21), wild type (from UniProt Q9NSA1) 195S-R			0.5
mature human FGF21 polypeptide fused with the human Fc fragment at the N-terminus (Fc-FGF21), wild type (from UniProt Q9NSA1) 197V-A			90
mature human FGF21 polypeptide fused with the human Fc fragment at the N-terminus (Fc-FGF21), wild type (from UniProt Q9NSA1) 198G-A			0.5
mature human FGF21 polypeptide fused with the human Fc fragment at the N-terminus (Fc-FGF21), wild type (from UniProt Q9NSA1) 198G-R			0.5
mature human FGF21 polypeptide fused with the human Fc fragment at the N-terminus (Fc-FGF21), wild type (from UniProt Q9NSA1) 199P-A			1
mature human FGF21 polypeptide fused with the human Fc fragment at the N-terminus (Fc-FGF21), wild type (from UniProt Q9NSA1) 199P-R			1.2
mature human FGF21 polypeptide fused with the human Fc fragment at the N-terminus (Fc-FGF21), wild type (from UniProt Q9NSA1) 200S-A			0.8
mature human FGF21 polypeptide fused with the human Fc fragment at the N-terminus (Fc-FGF21), wild type (from UniProt Q9NSA1) 200S-R			2
mature human FGF21 polypeptide fused with the human Fc fragment at the N-terminus (Fc-FGF21), wild type (from UniProt Q9NSA1) 201Q-A			0.6
mature human FGF21 polypeptide fused with the human Fc fragment at the N-terminus (Fc-FGF21), wild type (from UniProt Q9NSA1) 201Q-R			1
mature human FGF21 polypeptide fused with the human Fc fragment at the N-terminus (Fc-FGF21), wild type (from UniProt Q9NSA1) 202G-A			1.8
mature human FGF21 polypeptide fused with the human Fc fragment at the N-terminus (Fc-FGF21), wild type (from UniProt Q9NSA1) 202G-R			4.8
mature human FGF21 polypeptide fused with the human Fc fragment at the N-terminus (Fc-FGF21), wild type (from UniProt Q9NSA1) 203R-A			2
mature human FGF21 polypeptide fused with the human Fc fragment at the N-terminus (Fc-FGF21), wild type (from UniProt Q9NSA1) 205P-R			220
mature human FGF21 polypeptide fused with the human Fc fragment at the N-terminus (Fc-FGF21), wild type (from UniProt Q9NSA1) 208A-R			9
mature human FGF21 polypeptide fused with the human Fc fragment at the N-terminus (Fc-FGF21), wild type (from UniProt Q9NSA1) 209S-A			0.5
mature human FGF21 polypeptide fused with the human Fc fragment at the N-terminus (Fc-FGF21), wild type (from UniProt Q9NSA1) 209S-R			1.6
